Measured values: patent publication US20260166145A1 (Memorial Sloan Kettering, published 2026)

Assays:
[1] = molecular target: T1, Human CD33-FC protein (R&D Systems) (human, UniProt P20138 18-259); experiment: BLI (Octet RED96e): human CD33-FC captured on anti-hIgG Fc Capture biosensors, antibody in solution; full-length bivalent HuM195 IgG
T1 construct: Bought reagent; also called purified CD33-FC; not shown: Fc part of the bought fusion; it is captured by anti-hIgG Fc biosensors

[2] = molecular target: T1, Human CD33-FC protein (R&D Systems); experiment: competitive ELISA on coated CD33-FC: pre-incubation with increasing HuM195 antibody, then HuM195 scFv at 100 nM, detected with anti-human Fab-HRP; signal normalised to 0 nM HuM195 falls from about 95-100 to about 10 on the axis named Blocked (%)
[3] = molecular target: T1, Human CD33-FC protein (R&D Systems); experiment: BLI (Octet RED96e) on captured human CD33-FC; reference is HuM195 scFv
Excerpt: (§1) Equilibrium dissociation constant (Kd) measurement with bio-layer interferometry (BLI) biosensor. Human CD33-FC protein (R&D Systems, Minneapolis, MN) was captured on Anti-hIgG Fc Capture (AHC) Biosensors (ForteBio, Fremont, CA) overnight and blocked with FC. […] The binding graphs were fitted to a Kd constant model.

[4] = molecular target: T1, Human CD33-FC protein (R&D Systems); experiment: BLI (Octet RED96e): human CD33-FC captured on anti-hIgG Fc Capture biosensors, scFv in solution; monovalent scFv, not IgG
Excerpt: as §1

T1 sequence (P20138 18-259 limits assumed): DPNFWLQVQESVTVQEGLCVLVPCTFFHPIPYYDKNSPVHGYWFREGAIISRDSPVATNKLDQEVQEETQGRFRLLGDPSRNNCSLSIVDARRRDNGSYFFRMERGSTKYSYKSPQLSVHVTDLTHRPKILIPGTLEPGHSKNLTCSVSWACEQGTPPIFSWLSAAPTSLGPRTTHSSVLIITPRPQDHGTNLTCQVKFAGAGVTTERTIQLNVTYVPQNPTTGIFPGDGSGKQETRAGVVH

Binder	Kd [1]	IC50 [2]	fold difference of Kd against HuM195 scFv [3]	Kd [4]
Lintuzumab (HuM195) antibody (antibody, V domains shown, also called Hu195; Hu195 antibody) VH: QVQLVQSGAEVKKPGSSVKVSCKASGYTFTDYNMHWVRQAPGQGLEWIGYIYPYNGGTGYNQKFKSKATITADESTNTAYMELSSLRSEDTAVYYCARGRPAMDYWGQGTLVTVSS VL: DIQMTQSPSSLSASVGDRVTITCRASESVDNYGISFMNWFQQKPGGAPKLLIYAASNQGSGVPSRFSGSGSGTDFTLTISSLQPDDFATYYCQQSKEVPWTFGQGTKVEIK	62.7 pM	716 pM	~30 fold	–
HuM195 single-chain variable fragment (scFv), purified, with C-terminal His-tag (scFv, Expressed from the pSF-CMV-Puro-IL2 secretion plasmid in FreeStyle 293 cells and purified on a Histrap column; Monomeric by size exclusion chromatography; also called HuM195 scFv; Hu195 scFv) scFv: QVQLVQSGAEVKKPGSSVKVSCKASGYTFTDYNMHWVRQAPGQGLEWIGYIYPYNGGTGYNQKFKSKATITADESTNTAYMELSSLRSEDTAVYYCARGRPAMDYWGQGTLVTVSSGGGGSGGGGSGGGGSDIQMTQSPSSLSASVGDRVTITCRASESVDNYGISFMNWFQQKPGGAPKLLIYAASNQGSGVPSRFSGSGSGTDFTLTISSLQPDDFATYYCQQSKEVPWTFGQGTKVEIKHHHHHHHH	–	–	–	1810 pM
